B4: recombinant 6xHis-MLP L44P (natural protein, human, UniProt P50461 1-194, looked up)
chain: MPNWGGGAKCGACEKTVYHAEEIQCNGRSFHKTCFHCMACRKAPDSTTVAAHESEIYCKVCYGRRYGPKGIGYGQGAGCLSTDTGEHLGLQFQQSPKPARSVTTSNPSKFTAKFGESEKCPRCGKSVYAAEKVMGGGKPWHKTCFRCAICGKSLESTNVTDKDGELYCKVCYAKNFGPTGIGFGGLTQQVEKKE
notes: Muscle LIM Protein (MLP, CSRP3), human, with a patient mutation; source: bought: GenScript (recombinant protein, >80% purity); not shown: His6, N-terminal, kept
B6: recombinant 6xHis-MLP C58G (natural protein, human, UniProt P50461 1-194, looked up)
chain: MPNWGGGAKCGACEKTVYHAEEIQCNGRSFHKTCFHCMACRKALDSTTVAAHESEIYGKVCYGRRYGPKGIGYGQGAGCLSTDTGEHLGLQFQQSPKPARSVTTSNPSKFTAKFGESEKCPRCGKSVYAAEKVMGGGKPWHKTCFRCAICGKSLESTNVTDKDGELYCKVCYAKNFGPTGIGFGGLTQQVEKKE
notes: as for B4
B9: recombinant 6xHis-MLP-WT (natural protein, human, UniProt P50461 1-194, looked up)
chain: MPNWGGGAKCGACEKTVYHAEEIQCNGRSFHKTCFHCMACRKALDSTTVAAHESEIYCKVCYGRRYGPKGIGYGQGAGCLSTDTGEHLGLQFQQSPKPARSVTTSNPSKFTAKFGESEKCPRCGKSVYAAEKVMGGGKPWHKTCFRCAICGKSLESTNVTDKDGELYCKVCYAKNFGPTGIGFGGLTQQVEKKE
notes: Muscle LIM Protein (MLP), encoded by CSRP3, human, 194 amino acids; on the native blot a mixture of monomer, dimer, trimer and tetramer; also called full-length recombinant 6xHis-MLP-WT protein; Muscle LIM Protein; source: bought: GenScript (recombinant protein, >80% purity); not shown: His6, N-terminal, kept

The target of series [1] is B9. Kind of series: ELISA; wells coated with 10 µg of WT or mutated full-length 6xHis-MLP recombinant protein in PBS; biotinylated overlapping MLP-WT 30-mer peptides at 2–5 µM for two hours at 37 °C; signal of PBS-coated wells subtracted. As to conditions: both partners purified.
Series [2] deals with B6. The series is described as above. As to conditions: both partners purified.
Series [3] concerns the molecule itself. Description: immunoblotting under native conditions; 20 µg of cytoplasmic-, nuclear-, membrane- and cytoskeletal-enriched fractions of adult rat cardiomyocytes in native sample buffer, not boiled, SDS-containing running buffer; blot with C-terminal anti-MLP (#R06991). (Immunoblotting shows a protein as a band on a membrane.)
Series [4] concerns the molecule itself. Description: immunoblotting under native conditions; 0.5 µg of recombinant 6xHis-MLP WT or mutated protein in native sample buffer, not boiled, SDS-containing running buffer; blot with C-terminal anti-MLP (#R06991); densitometry.
Series [5] deals with B4. Description: ELISA; wells coated with 10 µg of WT or mutated full-length 6xHis-MLP recombinant protein in PBS; biotinylated overlapping MLP-WT 30-mer peptides at 2–5 µM for two hours at 37 °C; signal of PBS-coated wells subtracted. Conditions: both partners purified.

Where “and” joins values, the source holds several entries; their conditions need not be identical. Equal values may be shown once. Where no end group is shown, it is not given here. The star is where a group is joined. Biotin = O=C1N[C@H]2[C@H](CS[C@H]2CCCCC(=O)*)N1

B1: biotinylated MLP-WT peptide aa 50-79 (peptide, UniProt P50461 50-79, looked up)
peptide: Biotin-AAHESEIYCKVCYGRRYGPKGIGYGQGAGC
modifications: cysteine pairing not given here
notes: Muscle LIM Protein (MLP, CSRP3), human, 30-mer, residues 50-79, covering the end of LIM1 and the NLS; also called MLP peptide aa 50–79; source: synthetic peptide (GenScript, >80% purity)
B1: the binding result in series [1] and in series [2] was “binds” each time.

B2: MLP, endogenous in adult rat primary cardiomyocytes (natural protein, UniProt P50463 1-194, looked up)
chain: MPNWGGGAKCGACDKTVYHAEEIQCNGRSFHKTCFHCMACRKALDSTTVAAHESEIYCKVCYGRKYGPKGIGFGQGAGCLSTDTGEHLGLQFQQSPKPARAATTSNPSKFSAKFGESEKCPRCGKSVYAAEKVMGGGKPWHKTCFPCAICGKSLESTNVTDKDGELYCKVCYAKNFGPTGIGFGGLTHQVEKKE
notes: Muscle LIM Protein (MLP, CSRP3), rat; source: endogenous, enriched subcellular fractions of freshly isolated adult rat LV cardiomyocytes
In general, stoichiometry N refers to the number of molecules, sites or subunits per partner or assembly. Regarding B2, the “stoichiometry N” value in series [3] was 2 and 3 and 4.

B3: recombinant 6xHis-MLP W4R (natural protein, human, UniProt P50461 1-194, looked up)
chain: MPNRGGGAKCGACEKTVYHAEEIQCNGRSFHKTCFHCMACRKALDSTTVAAHESEIYCKVCYGRRYGPKGIGYGQGAGCLSTDTGEHLGLQFQQSPKPARSVTTSNPSKFTAKFGESEKCPRCGKSVYAAEKVMGGGKPWHKTCFRCAICGKSLESTNVTDKDGELYCKVCYAKNFGPTGIGFGGLTQQVEKKE
notes: Muscle LIM Protein (MLP, CSRP3), human, with a patient mutation; the eight mutated recombinant proteins are named in the abstract; source: bought: GenScript (recombinant protein, >80% purity); not shown: His6, N-terminal, kept
For B3, the binding result in series [4] was “binds”.

Consider B4, for which the binding result in series [4] is listed as “binds”.

B5: recombinant 6xHis-MLP G72R (natural protein, human, UniProt P50461 1-194, looked up)
chain: MPNWGGGAKCGACEKTVYHAEEIQCNGRSFHKTCFHCMACRKALDSTTVAAHESEIYCKVCYGRRYGPKGIRYGQGAGCLSTDTGEHLGLQFQQSPKPARSVTTSNPSKFTAKFGESEKCPRCGKSVYAAEKVMGGGKPWHKTCFRCAICGKSLESTNVTDKDGELYCKVCYAKNFGPTGIGFGGLTQQVEKKE
notes: as for B4
As to B5, in series [4], the binding result was “binds”.

As for B6, the binding result in series [4] is recorded as “binds”.

B7: recombinant 6xHis-MLP K69R (natural protein, human, UniProt P50461 1-194, looked up)
chain: MPNWGGGAKCGACEKTVYHAEEIQCNGRSFHKTCFHCMACRKALDSTTVAAHESEIYCKVCYGRRYGPRGIGYGQGAGCLSTDTGEHLGLQFQQSPKPARSVTTSNPSKFTAKFGESEKCPRCGKSVYAAEKVMGGGKPWHKTCFRCAICGKSLESTNVTDKDGELYCKVCYAKNFGPTGIGFGGLTQQVEKKE
notes: as for B4
In the case of B7, the binding result in series [4] is listed as “binds”.

B8: recombinant 6xHis-MLP R64C (natural protein, human, UniProt P50461 1-194, looked up)
chain: MPNWGGGAKCGACEKTVYHAEEIQCNGRSFHKTCFHCMACRKALDSTTVAAHESEIYCKVCYGCRYGPKGIGYGQGAGCLSTDTGEHLGLQFQQSPKPARSVTTSNPSKFTAKFGESEKCPRCGKSVYAAEKVMGGGKPWHKTCFRCAICGKSLESTNVTDKDGELYCKVCYAKNFGPTGIGFGGLTQQVEKKE
notes: as for B4
In the case of B8, the binding result in series [4] was “binds”.

As to B9, in series [4], the “stoichiometry N” value is 2 and 3 and 4.

B10: recombinant 6xHis-MLP Y66C (natural protein, human, UniProt P50461 1-194, looked up)
chain: MPNWGGGAKCGACEKTVYHAEEIQCNGRSFHKTCFHCMACRKALDSTTVAAHESEIYCKVCYGRRCGPKGIGYGQGAGCLSTDTGEHLGLQFQQSPKPARSVTTSNPSKFTAKFGESEKCPRCGKSVYAAEKVMGGGKPWHKTCFRCAICGKSLESTNVTDKDGELYCKVCYAKNFGPTGIGFGGLTQQVEKKE
notes: as for B4
As to B10, in series [4], the binding result is given as “binds”.

B11: recombinant 6xHis-MLP Q91L (natural protein, human, UniProt P50461 1-194, looked up)
chain: MPNWGGGAKCGACEKTVYHAEEIQCNGRSFHKTCFHCMACRKALDSTTVAAHESEIYCKVCYGRRYGPKGIGYGQGAGCLSTDTGEHLGLLFQQSPKPARSVTTSNPSKFTAKFGESEKCPRCGKSVYAAEKVMGGGKPWHKTCFRCAICGKSLESTNVTDKDGELYCKVCYAKNFGPTGIGFGGLTQQVEKKE
notes: as for B4
With B11, the binding result in series [4] was “binds”.

B12: biotinylated MLP-WT peptide aa 125-154 (peptide)
peptide: not shown
modifications: N-terminal biotin tag
notes: source: synthetic peptide (GenScript, >80% purity)
As to B12, the binding result in series [1], in series [2] and in series [5] was “binds” each time.

Source of the values: paper PMC11172336, “Exploring Syndecan-4 and MLP and Their Interaction in Primary Cardiomyocytes and H9c2 Cells” (Cells, 2024).
